Assay results reported in the supplement of paper PMC12042874.
± gives the uncertainty stated by the source.

Assay: amyloid nucleation score (Sup35N fusion, yeast selection) (log enrichment); library NNK2; higher = more nucleation; inactive = no reads after selection
Summary of the method: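 Plasmid inserts were Illumina-sequenced at input and output from psi-negative yeast expressing Sup35N fused to peptides of 20 random codons. The yeast were induced with 100 μM copper sulfate for 24 hours and grown 7 days at 30°C on medium lacking adenine and uracil, and sequences with under 100 input reads were excluded. Nucleation score is the DiMSum log enrichment of output over input reads, centred on the mode score of non-aggregating sequences.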

Substance | amyloid nucleation score
PLLRSKKKSALYPA | -0.021 ± 0.63
PLNCLPGNCSAQPRFGAASG | 0.505 ± 0.39
PLVEDLRSIYLVRCSAYLQR | 0.593 ± 0.33
PLVLKCRCLI | -1.32 ± 1.1
PLWPSNSD | -0.331 ± 0.54
PMAPSCLYRIIIMN | 1.51 ± 0.26
PMISKVCHILKRVEPSWGMR | -0.199 ± 1.1
PNALQGSRDVCTLKRLASEA | 0.238 ± 0.57
PNDAN | 0.043 ± 0.28
PQHFGEPTLIMVGKGLGCLR | 0.178 ± 0.77
PQLHSLCT | -0.214 ± 1
PRAHTVNV | -0.249 ± 1.1
PRCLDLLDIFV | 0.072 ± 1.1
PREKLYITMNMADIGSSRHP | 4.86 ± 0.051
PRRECVVRSAVPWYRRSRE | 1.71 ± 0.35
PSDMHSNNLA | -0.774 ± 0.76
PSGNQELLGTMTWIRKVTQS | -0.86 ± 0.34
PSIWSLDGSYFCSADENCKR | inactive
PSLWFLCRYGVTSIGLVFTL | -0.159 ± 1.1
PSNNIFSLLFLVLKHFIDMR | inactive
PSSISLTVYKSRMGEYWCKG | inactive
PSSSVCNINCYSKRSDRSVV | -0.09 ± 0.63

Substance | amyloid nucleation score
PSVACGERCKPMCKVTLSPC | 1.42 ± 0.33
PSVTRVLSLVILEAPNA | 2.76 ± 0.14
PSWCS | 0.33 ± 0.17
PTGGRLYSV | 0.012 ± 1
PTIMLTGR | 0.208 ± 0.65
PTSCSSRN | -0.055 ± 1.1
PVGVDLWCGSQSNSLNAFLH | inactive
PVIIAW | 0.14 ± 1
PVRLPSMWNVDRAFWPDYCQ | inactive
PVRSMNPLRRLNESSRFDEE | 1.48 ± 0.61
PWAMDQVTLSMVLPFMWPRL | 0.456 ± 0.39
PWDVGRRR | 0.97 ± 0.55
PWETRSNA | -0.012 ± 0.46
PWHVYFDRNGWPYGSQRVQG | 0.718 ± 0.57
PWNMACFS | inactive
PYATNSRRNRNVYLRPHCQI | 1.77 ± 0.12
PYIWYPISECRGSSSFETYA | 0.29 ± 0.74
PYNLVGLGLFSPAGF | -0.849 ± 0.61
PYSVMTFEIT | 0.486 ± 0.33
PYTSS | -0.107 ± 0.41
PYVMCLNDYPSSKDCFQIVS | -0.619 ± 0.27
QARYFFTAARYITVLWKSTF | -0.487 ± 0.56

Substance | amyloid nucleation score
QCFSLGGWVCFVIDVC | 9.476 ± 0.079
QCLTSRLGSKIVMCKSLDIS | 0.009 ± 0.23
QCVQRHALRVG | 4.31 ± 0.12
QDRGHSVL | inactive
QDSFRGLGYFWGPQHETVVM | -1.23 ± 0.48
QDTFYEWCKNVHVLHTRFGV | 0.905 ± 0.47
QDYTDHPGIIFSFRGCSRDT | inactive
QEQDKSRELKCGGKLYVYEG | 1.04 ± 0.68
QESWHNYESS | -0.805 ± 0.64
QGEEVGWFRFGRKSGAINMV | 0.076 ± 0.36
QGMNPLQSLDVKCYYL | inactive
QHAFRVHFTVRRVSSFFVR | 5.96 ± 0.086
QHTKGHSPEWD | 1.47 ± 0.28
QHVGDSWMSSVNLGVLRVRL | 0.055 ± 0.35
QHWRLNWNEDFFMYWYGFLT | -0.655 ± 0.41
QIFTKRVRTNLPFQFSNYVG | 0.479 ± 0.74
QIGNVFNRY | -0.283 ± 1
QLFTWILVAPKLPCWF | 6.36 ± 0.086
QLFVMPCMNSFEGRKRNCFS | -0.836 ± 0.48
QLIIMCVMGEQTICTVCHTG | 7.153 ± 0.042
QLPAHFFGLFCLFP | -1.41 ± 0.73
QLQFMRADFFLNKVKLRGET | inactive

Substance | amyloid nucleation score
QMFVRCSQ | 0.705 ± 0.66
QMQPTGLRQNLSSPWPFVGE | 0.993 ± 0.29
QNGRMSTHTDFGGM | 0.39 ± 0.38
QRDCSYEYLTTKLTAELRGS | 0.216 ± 0.55
QSMTTQNLGVWEELCKAFLI | inactive
QSNVCKIGSGVDESGNNMTL | 0.532 ± 0.37
QSPSL | -0.381 ± 0.79
QSRSRIGFGQCGRFGTAWWV | 0.605 ± 0.45
QSRWSFKTYYSREKW | -0.278 ± 0.39
QSTHMNT | -0.364 ± 0.48
QSVLSLSGLYGHDLREGLL | -0.387 ± 0.49
QSVQFRWRLCLAGFVGTGWR | 3.06 ± 0.089
QSYVLMC | -0.233 ± 0.48
QSYWSWLKKVSRFVYPHTRS | 0.291 ± 0.26
QTCLHMSIGWVSP | 4.38 ± 0.082
QTGQGYIVQGTVNSMKGCFR | -0.038 ± 0.65
QTNYEAHFDRVINYAFVHLF | -0.392 ± 0.79
QTSLSTMMYLPCH | 0.7 ± 0.49
QTTDNFIVKHALCNVA | -0.622 ± 0.34
QTTMKVSFSFLMRGGNPQVM | 4.56 ± 0.11
QVFFFLITSRVRSVRFSQEF | 1.62 ± 0.25
